Experimental data from patent publication US20030133907A1.

The substances below were run against T1, IFNG receptors on HeLa cells (UniProt P15260) (assay: cell-based or functional assay).
T1 sequence (looked up): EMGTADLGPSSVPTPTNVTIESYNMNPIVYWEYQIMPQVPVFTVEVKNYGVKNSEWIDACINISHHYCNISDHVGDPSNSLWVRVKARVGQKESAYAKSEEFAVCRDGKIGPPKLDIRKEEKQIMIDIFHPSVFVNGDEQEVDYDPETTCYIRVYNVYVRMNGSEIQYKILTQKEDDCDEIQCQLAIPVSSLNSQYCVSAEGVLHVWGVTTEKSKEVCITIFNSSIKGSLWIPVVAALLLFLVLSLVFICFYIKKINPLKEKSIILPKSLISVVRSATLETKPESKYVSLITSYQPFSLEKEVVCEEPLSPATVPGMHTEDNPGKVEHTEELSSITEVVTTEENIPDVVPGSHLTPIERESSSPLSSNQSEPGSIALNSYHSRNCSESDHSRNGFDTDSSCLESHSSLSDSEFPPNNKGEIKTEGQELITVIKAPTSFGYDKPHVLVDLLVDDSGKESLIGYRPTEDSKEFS
Substance “E38C + S99T (full-length + 10 kDa mPEG) (from UniProt P01579 24-161) (ligand)” has an Activity relative to non-PEGylated product subjected to “PEGylation procedure” (%), Primary Assay of 41%. For “E38C + S99T (full-length) (from UniProt P01579 24-161) (ligand)”, the % activity of full-length wt (AU/ml basis), Primary Assay was 71%, the % activity of full-length wt (specific activity), Primary Assay was 16% and the Activity (AU/ml), Primary Assay (ISRE-luciferase in HeLa cells), after transient transfection was 1e+07 AU/ml. For the same substance, the Specific activity (AU/mg), Primary Assay (ISRE-luciferase in HeLa cells), after purification was 3.4e+06 AU/mg. For “E38N (full-length) (from UniProt P01579 24-161) (ligand)”, the % activity of full-length wt (AU/ml basis), Primary Assay was 100% and the Activity (AU/ml), Primary Assay (ISRE-luciferase in HeLa cells), after transient transfection was 1.4e+07 AU/ml. For “E38N + K61T (full-length) (from UniProt P01579 24-161) (ligand)”, the % activity of full-length wt (AU/ml basis), Primary Assay was 86% and the Activity (AU/ml), Primary Assay (ISRE-luciferase in HeLa cells), after transient transfection was 1.2e+07 AU/ml. In the case of “E38N + K61T + S99T (full-length) (from UniProt P01579 24-161) (ligand)”, the % activity of full-length wt (AU/ml basis), Primary Assay is reported as 10% and the Activity (AU/ml), Primary Assay (ISRE-luciferase in HeLa cells), after transient transfection is reported as 1.4e+06 AU/ml. Substance “E38N + S40T (full-length) (from UniProt P01579 24-161) (ligand)” has a % activity of full-length wt (AU/ml basis), Primary Assay of 71% and an Activity (AU/ml), Primary Assay (ISRE-luciferase in HeLa cells), after transient transfection of 9.9e+06 AU/ml. “E38N + S40T + K94C + S99T (full-length) (from UniProt P01579 24-161) (ligand)” gave a % activity of full-length wt (AU/ml basis), Primary Assay of 7% and an Activity (AU/ml), Primary Assay (ISRE-luciferase in HeLa cells), after transient transfection of 940000 AU/ml. “E38N + S40T + N59C + S99T (full-length) (from UniProt P01579 24-161) (ligand)” was tested, and the % activity of full-length wt (AU/ml basis), Primary Assay was 79% and the Activity (AU/ml), Primary Assay (ISRE-luciferase in HeLa cells), after transient transfection was 1.1e+07 AU/ml. Substance “E38N + S40T + N83C + S99T (full-length) (from UniProt P01579 24-161) (ligand)” has a % activity of full-length wt (AU/ml basis), Primary Assay of 5% and an Activity (AU/ml), Primary Assay (ISRE-luciferase in HeLa cells), after transient transfection of 720000 AU/ml. With “E38N + S40T + S99T (full-length) (from UniProt P01579 24-161) (ligand)” the % activity of full-length wt (AU/ml basis), Primary Assay was 93%, the % activity of full-length wt (specific activity), Primary Assay was 67% and the Activity (AU/ml), Primary Assay (ISRE-luciferase in HeLa cells), after transient transfection was 1.3e+07 AU/ml. It also gave a Specific activity (AU/mg), Primary Assay (ISRE-luciferase in HeLa cells), after purification of 1.4e+07 AU/mg. With “E38N + S40T + S99T (truncated after Leu135) (from UniProt P01579 24-158) (ligand)” the % activity of full-length wt (AU/ml basis), Primary Assay was 29% and the Activity (AU/ml), Primary Assay (ISRE-luciferase in HeLa cells), after transient transfection was 4e+06 AU/ml. Substance “E38N + S40T + S99T + N104C (full-length) (from UniProt P01579 24-161) (ligand)” has a % activity of full-length wt (AU/ml basis), Primary Assay of 16% and an Activity (AU/ml), Primary Assay (ISRE-luciferase in HeLa cells), after transient transfection of 2.3e+06 AU/ml. “N10C + E38N + S40T + S99T (full-length) (from UniProt P01579 24-161) (ligand)” was tested, and the % activity of full-length wt (AU/ml basis), Primary Assay was 11% and the Activity (AU/ml), Primary Assay (ISRE-luciferase in HeLa cells), after transient transfection was 1.5e+06 AU/ml. For “N10C + S99T (full-length + 5 kDa mPEG) (from UniProt P01579 24-161) (ligand)”, the Activity relative to non-PEGylated product subjected to “PEGylation procedure” (%), Primary Assay was 23%. For “N10C + S99T (full-length) (from UniProt P01579 24-161) (ligand)”, the % activity of full-length wt (AU/ml basis), Primary Assay was 18%, the % activity of full-length wt (specific activity), Primary Assay was 18% and the Activity (AU/ml), Primary Assay (ISRE-luciferase in HeLa cells), after transient transfection was 2.5e+06 AU/ml. It also gave a Specific activity (AU/mg), Primary Assay (ISRE-luciferase in HeLa cells), after purification of 3.8e+06 AU/mg. Work on “N16C + E38N + S40T + S99T (full-length) (from UniProt P01579 24-161) (ligand)” yielded a % activity of full-length wt (AU/ml basis), Primary Assay of 26% and an Activity (AU/ml), Primary Assay (ISRE-luciferase in HeLa cells), after transient transfection of 3.7e+06 AU/ml. Substance “N16C + S99T (full-length + 5 kDa mPEG) (from UniProt P01579 24-161) (ligand)” has an Activity relative to non-PEGylated product subjected to “PEGylation procedure” (%), Primary Assay of 59%. Substance “N16C + S99T (full-length + 10 kDa mPEG) (from UniProt P01579 24-161) (ligand)” has a % activity of full-length wt (specific activity), Primary Assay of 6%, a Specific activity (AU/mg), Primary Assay (ISRE-luciferase in HeLa cells), after purification of 1.3e+06 AU/mg and a specific activity relative to the corresponding non-PEGylated IFNG variant, Primary Assay of 15%. In the case of “N16C + S99T (full-length) (from UniProt P01579 24-161) (ligand)”, the % activity of full-length wt (AU/ml basis), Primary Assay is reported as 79%, the % activity of full-length wt (specific activity), Primary Assay is reported as 11% and the Activity (AU/ml), Primary Assay (ISRE-luciferase in HeLa cells), after transient transfection is reported as 1.1e+07 AU/ml. For the same substance, the Specific activity (AU/mg), Primary Assay (ISRE-luciferase in HeLa cells), after purification was 2.3e+06 AU/mg. For “N59C + S99T (full-length + 5 kDa mPEG) (from UniProt P01579 24-161) (ligand)”, the % activity of full-length wt (specific activity), Primary Assay was 11%, the Specific activity (AU/mg), Primary Assay (ISRE-luciferase in HeLa cells), after purification was 2.4e+06 AU/mg and the specific activity relative to the corresponding non-PEGylated IFNG variant, Primary Assay was 15%. With “N59C + S99T (full-length) (from UniProt P01579 24-161) (ligand)” the % activity of full-length wt (specific activity), Primary Assay was 30% and the Specific activity (AU/mg), Primary Assay (ISRE-luciferase in HeLa cells), after purification was 6.3e+06 AU/mg. “S99T (full-length) (from UniProt P01579 24-161) (ligand)” was tested, and the % activity of full-length wt (AU/ml basis), Primary Assay was 36%, the % activity of full-length wt (specific activity), Primary Assay was 105% and the Activity (AU/ml), Primary Assay (ISRE-luciferase in HeLa cells), after transient transfection was 5.1e+06 AU/ml. The Specific activity (AU/mg), Primary Assay (ISRE-luciferase in HeLa cells), after purification was 2.2e+07 AU/mg. With “S99T (truncated after Leu135) (from UniProt P01579 24-158) (ligand)” the % activity of full-length wt (AU/ml basis), Primary Assay was 25% and the Activity (AU/ml), Primary Assay (ISRE-luciferase in HeLa cells), after transient transfection was 3.5e+06 AU/ml. For “S99T + N104C (full-length + 5 kDa mPEG) (from UniProt P01579 24-161) (ligand)”, the Activity relative to non-PEGylated product subjected to “PEGylation procedure” (%), Primary Assay was 42%. For “S99T + N104C (full-length) (from UniProt P01579 24-161) (ligand)”, the % activity of full-length wt (AU/ml basis), Primary Assay was 36%, the % activity of full-length wt (specific activity), Primary Assay was 17% and the Activity (AU/ml), Primary Assay (ISRE-luciferase in HeLa cells), after transient transfection was 5e+06 AU/ml. The Specific activity (AU/mg), Primary Assay (ISRE-luciferase in HeLa cells), after purification was 3.5e+06 AU/mg. Substance “Wild-type (full-length) rhuIFNG (from UniProt P01579 24-161) (ligand)” has an Activity (AU/ml), Primary Assay (ISRE-luciferase in HeLa cells), after transient transfection of 1.4e+07 AU/ml and a Specific activity (AU/mg), Primary Assay (ISRE-luciferase in HeLa cells), after purification of 2.1e+07 AU/mg. Substance “Wild-type (truncated after Leu135) (from UniProt P01579 24-158) (ligand)” has a % activity of full-length wt (AU/ml basis), Primary Assay of 45% and an Activity (AU/ml), Primary Assay (ISRE-luciferase in HeLa cells), after transient transfection of 6.3e+06 AU/ml.
